Article PMC4162156

Molecular target: β-PrP^23–231 (full-length recombinant mouse PrP residues 23–231 refolded to the β-sheet conformation) (mouse) (UniProt P04925)
Test: AUC

## β-PrP^23–231 (full-length recombinant mouse PrP residues 23–231 refolded to the β-sheet conformation) (from UniProt P04925 23-231) (natural protein)
  percentage occupancy of sample (oligomer): 61%
  stoichiometry N (monomer subunits): 12
